Results: patent US6472171

T1: chicken protein disulfide isomerase, P09102
T1 chain: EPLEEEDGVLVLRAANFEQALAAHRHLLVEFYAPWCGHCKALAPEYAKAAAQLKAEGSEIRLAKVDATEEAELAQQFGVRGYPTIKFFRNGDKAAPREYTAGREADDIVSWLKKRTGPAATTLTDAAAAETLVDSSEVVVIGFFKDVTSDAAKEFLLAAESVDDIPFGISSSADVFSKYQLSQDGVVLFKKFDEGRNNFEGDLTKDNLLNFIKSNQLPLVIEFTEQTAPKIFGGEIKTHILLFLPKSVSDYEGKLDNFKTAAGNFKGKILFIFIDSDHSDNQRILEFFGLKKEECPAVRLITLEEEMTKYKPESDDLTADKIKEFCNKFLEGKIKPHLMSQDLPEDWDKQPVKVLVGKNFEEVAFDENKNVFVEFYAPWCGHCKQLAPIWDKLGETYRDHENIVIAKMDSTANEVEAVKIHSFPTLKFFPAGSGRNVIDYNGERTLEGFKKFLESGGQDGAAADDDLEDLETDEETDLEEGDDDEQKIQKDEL


Legend:
[1] = biological target: T1, chicken protein disulfide isomerase, …
[2] = biological target: human protein disulfide isomerase, P07237
Chain of human protein disulfide isomerase, P07237 (P07237 18-508): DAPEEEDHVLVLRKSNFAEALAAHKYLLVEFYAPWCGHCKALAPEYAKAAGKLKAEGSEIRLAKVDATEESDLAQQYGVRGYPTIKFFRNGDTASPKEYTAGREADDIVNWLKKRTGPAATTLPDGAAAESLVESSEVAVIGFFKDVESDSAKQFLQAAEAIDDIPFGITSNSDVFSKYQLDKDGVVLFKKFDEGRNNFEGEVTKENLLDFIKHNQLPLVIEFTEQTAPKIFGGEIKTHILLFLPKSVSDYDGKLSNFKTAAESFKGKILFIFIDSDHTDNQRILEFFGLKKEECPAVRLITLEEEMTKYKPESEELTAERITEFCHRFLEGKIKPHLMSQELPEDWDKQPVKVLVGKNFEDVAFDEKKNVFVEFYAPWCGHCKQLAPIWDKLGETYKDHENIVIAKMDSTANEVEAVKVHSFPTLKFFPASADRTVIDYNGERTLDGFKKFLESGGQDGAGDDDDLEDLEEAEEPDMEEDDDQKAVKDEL

Row | Protein | production of hydroxylated, heterotrimeric type 1 procollagen in yeast (plasmid Gp5511, cPDI/hP4-H) [1] | production of hydroxylated, heterotrimeric type 1 procollagen in yeast (plasmid Gp5565, hPDI/hP4-H) [2] | production of hydroxylated, heterotrimeric type 1 procollagen in yeast (plasmid Gp5563, cPDI/cP4-H) [1]
1 | human prolyl 4-hydroxylase subunit (protein) HPGFFTSIGQMTDLIHTEKDLVTSLKDYIKAEEDKLEQIKKWAEKLDRLTSTATKDPEGFVGHPVNAFKLMKRLNTEWSELENLVLKDMSDGFISNLTIQRQYFPNDEDQVGAAKALLRLQDTYNLDTDTISKGNLPGVKHKSFLTAEDCFELGKVAYTEADYYHTELWMEQALRQLDEGEISTIDKVSVLDYLSYAVYQQGDLDKALLLTKKLLELDPEHQRANGNLKYFEYIMAKEKDVNKSASDDQSDQKTTPKKKGVAVDYLPERQKYEMLCRGEGIKMTPRRQKKLFCRYHDGNRNPKFILAPAKQEDEWDKPRIIRFHDIISDAEIEIVKDLAKPRLRRATISNPITGDLETVHYRISKSAWLSGYENPVVSRINMRIQDLTGLDVSTAEELQVANYGVGGQYEPHFDFARKDEPDAFKELGTGNRIATWLFYMSDVSAGGATVFPEVGASVWPKKGTAVFWYNLFASGEGDYSTRHAACPVLVGNKWVSNKWLHERGQEFRRPCTLSELE | Plasmid Gp5511 (cPDI/hP4-H) generated the first hydroxylated type 1 (α1α2) procollagen expressed in yeast | < 3 times lower | –
2 | chicken prolyl 4-hydroxylase subunit (protein) HTDFFTSIGHMTDLINTEKDLVISKLKDYIKAEESKLEQIKKWAEKLDKLTDTATKDPEGFLGHPANAFKLMKRLNTEWGELESLVLKDMSDGFISNMTIQRQFFPNDEDQTGARKALLRLQDTYNLDTDTLSRGNLPGVKHKSFLTAEDCFELGKIRYTEADYYHTELWMEQALKQLDEGEVSSADKVYILDYLSYAVYQQGDLSKAMMLTKRLLELDPEHQRANGNMKYFEYIMAKEKEANKSSTDAEDQTDKETEVKKKDYLPERRKYEMLCRGEGLKMTPRRQKRLFCRYYDGNRNPRYILGPVKQEDEWDKPRIVRFLDIISDEEIETVKELAKPRLSRATVHDPETGKLTTAHYRVSKSAWLSGYESPVVSRINTRIQDLTGLDVSTAEELQVANYGVGGQYEPHFDFGRKDEPDAFKELGTGNRIATWLFYMSDVSAGGATVFPEVGASVWPKKGTAVFWYNLFPSGEGDYSTRHAACPVLVGNKWVSNKWLHERGQEFRRPCTLSELE | – | – | produce levels of hydroxylated heterotrimeric procollagen equal to that found with plasmid Gp5511
